Data taken from PMC3384336 (Nucleic Acids Research, 2012).

T1: RNA polymerase I subunit A135 (Saccharomyces cerevisiae, UniProt P22138 1-1203)
T1 sequence: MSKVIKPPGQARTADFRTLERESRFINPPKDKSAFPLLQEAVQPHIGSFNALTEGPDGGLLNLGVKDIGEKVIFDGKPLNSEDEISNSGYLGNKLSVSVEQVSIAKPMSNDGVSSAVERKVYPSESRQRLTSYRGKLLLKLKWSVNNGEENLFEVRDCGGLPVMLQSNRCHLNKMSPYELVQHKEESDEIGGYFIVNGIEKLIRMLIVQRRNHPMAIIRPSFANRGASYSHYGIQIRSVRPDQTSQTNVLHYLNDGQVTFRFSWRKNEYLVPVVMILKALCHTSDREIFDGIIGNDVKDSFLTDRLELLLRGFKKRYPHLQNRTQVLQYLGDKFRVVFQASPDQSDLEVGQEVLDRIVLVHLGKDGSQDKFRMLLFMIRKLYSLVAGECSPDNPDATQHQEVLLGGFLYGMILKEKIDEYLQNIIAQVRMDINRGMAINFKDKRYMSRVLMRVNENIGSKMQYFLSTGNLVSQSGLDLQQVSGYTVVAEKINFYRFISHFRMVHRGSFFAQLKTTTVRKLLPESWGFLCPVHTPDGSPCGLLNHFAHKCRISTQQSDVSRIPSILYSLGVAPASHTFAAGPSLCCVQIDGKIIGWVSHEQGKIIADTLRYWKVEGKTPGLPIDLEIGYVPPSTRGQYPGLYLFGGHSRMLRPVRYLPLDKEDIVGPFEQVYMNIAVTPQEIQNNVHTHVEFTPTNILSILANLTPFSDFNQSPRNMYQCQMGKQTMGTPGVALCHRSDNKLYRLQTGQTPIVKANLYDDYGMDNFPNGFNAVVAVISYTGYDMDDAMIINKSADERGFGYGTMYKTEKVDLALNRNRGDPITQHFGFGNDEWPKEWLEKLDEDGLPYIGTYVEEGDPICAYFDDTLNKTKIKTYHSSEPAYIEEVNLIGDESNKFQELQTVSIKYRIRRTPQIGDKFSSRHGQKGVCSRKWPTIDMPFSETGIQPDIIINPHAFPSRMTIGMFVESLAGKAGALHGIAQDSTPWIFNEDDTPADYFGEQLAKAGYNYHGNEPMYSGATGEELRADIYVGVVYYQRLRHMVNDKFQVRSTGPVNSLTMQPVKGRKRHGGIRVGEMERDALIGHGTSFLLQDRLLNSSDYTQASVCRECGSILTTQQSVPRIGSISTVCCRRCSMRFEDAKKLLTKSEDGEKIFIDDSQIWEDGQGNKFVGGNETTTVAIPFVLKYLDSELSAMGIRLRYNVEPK

T2: RNA polymerase I subunit AC40 (Saccharomyces cerevisiae, UniProt P07703 1-335)
T2 sequence: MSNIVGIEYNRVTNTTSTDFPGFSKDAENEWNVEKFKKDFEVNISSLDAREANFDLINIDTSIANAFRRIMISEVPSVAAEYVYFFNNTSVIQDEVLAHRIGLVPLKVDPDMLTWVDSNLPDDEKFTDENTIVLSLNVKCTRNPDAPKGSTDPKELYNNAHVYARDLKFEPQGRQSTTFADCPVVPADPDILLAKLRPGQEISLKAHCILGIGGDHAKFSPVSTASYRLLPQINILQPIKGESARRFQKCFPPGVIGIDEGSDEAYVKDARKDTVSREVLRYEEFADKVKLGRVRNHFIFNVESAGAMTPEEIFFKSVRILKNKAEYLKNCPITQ

B1: RNA polymerase I subunit A34.5 (natural protein)
chain: MSKLSKDYVSDSDSDDEVISNEFSIPDGFKKCKHLKNFPLNGDNKKKAKQQQVWLIKFPSNVDISKLKSLPVDFESSTTMTIDKHDYKIMDDTDIESSLTQDNLSNMTLLVPSESKESLKIASTAKDNAPLQFDKVFSVSETAKIPAIDYSKVRVPRKDVPKVEGLKLEHFATGYDAEDFHVAEEVKENKKEPKKRSHHDDEEESSEKKKKKKEKREKREKKDKKDKKKKHRD
B2: RNA polymerase I subunit A49 (natural protein)
chain: MSVKRSVSEIEIESVQDQPSVAVGSFFKGFRAPSDTTFDLYKKKKSEKDEFVLHGENERLEYEGYTDSSSQASNQYVVGLFNPEKKSIQLYKAPVLVSKVVSKSSKNLRGPKIKSKSDTRPSALRNALGEAFGTKKAKKAIADLERNRIDSDKLTDSAIDIVDSVRTASKDLPTRAQLDEITSNDRPTPLANIDATDVEQIYPIESIIPKKELQFIRVSSILKEADKEKKLELFPYQNNSKYVAKKLDSLTQPSQMTKLQLLYYLSLLLGVYENRRVNNKTKLLERLNSPPEILVDGILSRFTVIKPGQFGRSKDRSYFIDPQNEDKILCYILAIIMHLDNFIVEITPLAHELNLKPSKVVSLFRVLGAIVKGATVAQAEAFGIPKSTAASYKIATMKVPFKLPEMTRRGRGPRR
B3: RNA polymerase subunit Rpb5 (natural protein)
chain: MDQENERNISRLWRAFRTVKEMVKDRGYFITQEEVELPLEDFKAKYCDSMGRPQRKMMSFQANPTEESISKFPDMGSLWVEFCDEPSVGVKTMKTFVIHIQEKNFQTGIFVYQNNITPSAMKLVPSIPPATIETFNEAALVVNITHHELVPKHIRLSSDEKRELLKRYRLKESQLPRIQRADPVALYLGLKRGEVVKIIRKSETSGRYASYRICM
B4: RNA polymerase I subunit AC19 (natural protein)
chain: MTEDIEQKKTATEVTPQEPKHIQEEEEQDVDMTGDEEQEEEPDREKIKLLTQATSEDGTSASFQIVEEDHTLGNALRYVIMKNPDVEFCGYSIPHPSENLLNIRIQTYGETTAVDALQKGLKDLMDLCDVVESKFTEKIKSM
B5: RNA polymerase I subunit A43 (natural protein)
chain: MSQVKRANENRETARFIKKHKKQVTNPIDEKNGTSNCIVRVPIALYVSLAPMYLENPLQGVMKQHLNPLVMKYNNKVGGVVLGYEGLKILDADPLSKEDTSEKLIKITPDTPFGFTWCHVNLYVWQPQVGDVLEGYIFIQSASHIGLLIHDAFNASIKKNNIPVDWTFVHNDVEEDADVINTDENNGNNNNEDNKDSNGGSNSLGKFSFGNRSLGHWVDSNGEPIDGKLRFTVRNVHTTGRVVSVDGTLISDADEEGNGYNSSRSQAESLPIVSNKKIVFDDEVSIENKESHKELDLPEVKEDNGSEIVYEENTSESNDGESSDSD
B6: RNA polymerase I subunit A12.2 (natural protein)
chain: MSVVGSLIFCLDCGDLLENPNAVLGSNVECSQCKAIYPKSQFSNLKVVTTTADDAFPSSLRAKKSVVKTSLKKNELKDGATIKEKCPQCGNEEMNYHTLQLRSADEGATVFYTCTSCGYKFRTNN

How the values were obtained:
Test in all cases: cross-linking
[1] = target: T1, RNA polymerase I subunit A135
[2] = target: T2, RNA polymerase I subunit AC40
[3] = target: B2
[4] = target: RNA polymerase I subunit A190 (Saccharomyces cerevisiae, UniProt P10964 1-1664)
Chain of RNA polymerase I subunit A190 (P10964 whole entry): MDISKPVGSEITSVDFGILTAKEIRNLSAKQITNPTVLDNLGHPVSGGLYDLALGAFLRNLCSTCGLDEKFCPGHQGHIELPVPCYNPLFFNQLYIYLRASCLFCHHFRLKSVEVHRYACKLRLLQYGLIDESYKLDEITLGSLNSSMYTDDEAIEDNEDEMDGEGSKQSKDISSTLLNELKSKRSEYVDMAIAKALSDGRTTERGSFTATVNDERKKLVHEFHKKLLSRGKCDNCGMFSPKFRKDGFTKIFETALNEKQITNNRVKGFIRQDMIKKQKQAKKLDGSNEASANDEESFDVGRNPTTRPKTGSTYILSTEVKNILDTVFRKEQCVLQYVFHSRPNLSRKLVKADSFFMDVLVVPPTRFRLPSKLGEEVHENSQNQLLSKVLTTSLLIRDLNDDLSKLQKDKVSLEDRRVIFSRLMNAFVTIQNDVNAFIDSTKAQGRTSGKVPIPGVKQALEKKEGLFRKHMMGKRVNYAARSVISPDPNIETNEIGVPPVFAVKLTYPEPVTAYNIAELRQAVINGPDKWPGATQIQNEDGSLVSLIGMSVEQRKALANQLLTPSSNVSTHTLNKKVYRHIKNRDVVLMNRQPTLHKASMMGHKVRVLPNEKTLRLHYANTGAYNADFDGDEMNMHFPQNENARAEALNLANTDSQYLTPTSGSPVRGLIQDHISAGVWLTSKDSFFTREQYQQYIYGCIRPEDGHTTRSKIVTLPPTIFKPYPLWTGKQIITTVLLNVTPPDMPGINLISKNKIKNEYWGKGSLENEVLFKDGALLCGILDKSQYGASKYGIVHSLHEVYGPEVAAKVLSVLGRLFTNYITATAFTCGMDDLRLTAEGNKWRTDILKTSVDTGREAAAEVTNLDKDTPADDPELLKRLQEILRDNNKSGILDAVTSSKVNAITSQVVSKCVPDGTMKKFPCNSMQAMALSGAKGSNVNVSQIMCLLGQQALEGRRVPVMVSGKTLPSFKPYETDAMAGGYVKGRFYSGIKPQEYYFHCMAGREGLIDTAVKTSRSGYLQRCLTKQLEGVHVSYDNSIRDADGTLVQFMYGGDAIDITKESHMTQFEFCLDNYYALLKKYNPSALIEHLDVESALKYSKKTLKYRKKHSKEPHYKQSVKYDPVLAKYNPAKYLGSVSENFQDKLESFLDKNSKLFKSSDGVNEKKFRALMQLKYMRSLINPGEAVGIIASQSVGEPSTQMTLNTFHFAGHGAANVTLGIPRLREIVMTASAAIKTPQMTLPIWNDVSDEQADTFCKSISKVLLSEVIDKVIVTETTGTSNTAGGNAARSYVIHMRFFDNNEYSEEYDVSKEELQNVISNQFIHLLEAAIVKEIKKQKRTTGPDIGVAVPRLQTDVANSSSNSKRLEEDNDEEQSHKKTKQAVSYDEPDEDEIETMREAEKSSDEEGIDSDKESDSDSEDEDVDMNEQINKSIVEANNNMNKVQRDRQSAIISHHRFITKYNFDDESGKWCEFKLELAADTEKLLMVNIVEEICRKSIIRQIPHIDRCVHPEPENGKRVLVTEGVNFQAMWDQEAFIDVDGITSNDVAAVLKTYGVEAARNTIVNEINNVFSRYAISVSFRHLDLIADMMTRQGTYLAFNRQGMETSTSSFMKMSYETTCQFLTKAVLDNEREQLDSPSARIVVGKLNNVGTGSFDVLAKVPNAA

[5] = target: B1

Binder: B1
- binding result [1]: binds
- binding result [2]: binds
- binding result [3]: binds

Binder: B2
- binding result [4]: binds
- binding result [1]: binds

Binder: B3
- binding result [3]: binds

Binder: B4
- binding result [5]: binds

Binder: B5
- binding result [3]: binds

Binder: B6
- binding result [4]: binds
- binding result [1]: binds
